pKd: −log10 of the molar value.
Tests used:
[1] = molecular target: CD44 trans-membrane domain (TMD) fused to maltose-binding protein [MBP: P0AEX9]; test: single-molecule force spectroscopy
[2] = molecular target: biotinylated maltose-binding protein (MBP) [MBP: P0AEX9]; test: SPR

monobody YS1(E47A) (designed binder)
decrease of rupture force against YS1 [1]: 10 to 15 pN | unstressed off-rate k0off (Bell model) [1]: 0.00076 s⁻¹ | pKd [2]: 7.00 | koff [2]: 0.0387 s⁻¹ | kon [2]: 360000 M⁻¹ s⁻¹
